Consider 10 proteins from the FLAb antibody collection.

B1: unnamed (protein)
chain 1: EVQLLESGGGLVQPGGSLRLSCAVSGFTFNSFAMSWVRQAPGKGLEWVSAISGSGGGTYYADSVKGRFTISRDNSKNTLYLQMNSLRAEDTAVYFCAKDKILWFGEPVFDYWGQGTLVTVSS
chain 2: not shown
B2: unnamed (protein)
chain 1: QVQLVESGGGVVQPGRSLRLSCAASGFSFSNYGMHWVRQAPGKGLEWVALIWYDGSNEDYTDSVKGRFTISRDNSKNTLYLQMNSLRAEDTAVYYCARWGMVRGVIDVFDIWGQGTVVTVSS
chain 2: DIQMTQSPSSVSASVGDRVTITCRASQGISSWLAWYQHKPGKAPKLLIYAASSLQSGVPSRFSGSGSGTDFTLTISSLQPEDFATYYCQQANSFPWTFGQGTKVEIK
B3: unnamed (protein)
chain 1: EVQLVQSGAEVKKPGATVKISCKVSGYTFTDYYIHWVQQAPGKGLEWMGRVNPDHGDSYYNQKFKDKATITADKSTDTAYMELSSLRSEDTAVYFCARNYLFDHWGQGTLVTVSS
chain 2: DIQMTQSPSSVSASVGDRVTITCKASQDVGTAVAWYQQKPGKAPKLLIYWASIRHTGVPSRFSGSGSGTDFTLTISSLQPEDFATYYCHQFATYTFGGGTKVEIK
B4: unnamed (protein)
chain 1: QVQLKESGPGLVAPSQSLSITCTVSGFSLTDYGVRWIRQPPGKGLEWLGVIWGGGSTYYNSALKSRLSISKDNSKSQVFLKMNSLQTDDTAMYYCAKEKRRGYYYAMDYWGQGTSVTVSS
chain 2: ENVLTQSPAIMSASPGEKVTMTCRASSSVSSSYLHWYQQKSGASPKLWIYSTSNLASGVPARFSGSGSGTSYSLTISSVEAEDAATYYCQQYSGYPLTFGGGTKLEIK
B5: unnamed (protein)
chain 1: QVQLQESGPGLVKPSQTLSLTCTVSGYSISSDFAWNWIRQPPGKGLEWMGYISYSGNTRYQPSLKSRITISRDTSKNQFFLKLNSVTAADTATYYCVTAGRGFPYWGQGTLVTVSS
chain 2: DIQMTQSPSSMSVSVGDRVTITCHSSQDINSNIGWLQQKPGKSFKGLIYHGTNLDDGVPSRFSGSGSGTDYTLTISSLQPEDFATYYCVQYAQFPWTFGGGTKLEIK
B6: unnamed (protein)
chain 1: EVQLVESGGGLEQPGGSLRLSCAGSGFTFRDYAMTWVRQAPGKGLEWVSSISGSGGNTYYADSVKGRFTISRDNSKNTLYLQMNSLRAEDTAVYYCAKDRLSITIRPRYYGLDVWGQGTTVTVSS
chain 2: DIVMTQSPLSLPVTPGEPASISCRSSQSLLYSIGYNYLDWYLQKSGQSPQLLIYLGSNRASGVPDRFSGSGSGTDFTLKISRVEAEDVGFYYCMQALQTPYTFGQGTKLEIK
B7: unnamed (protein)
chain 1: EVQLLESGGGLVQPGGSLRLSCAASGFTFSSYAMSWVRQAPGKGLEWVSGITGSGGSTYYADSVKGRFTISRDNSKNTLYLQMNSLRAEDTAVYYCAKDPGTTVIMSWFDPWGQGTLVTVSS
chain 2: EIVLTQSPGTLSLSPGERATLSCRASQSVRGRYLAWYQQKPGQAPRLLIYGASSRATGIPDRFSGSGSGTDFTLTISRLEPEDFAVFYCQQYGSSPRTFGQGTKVEIK
B8: unnamed (protein)
chain 1: EVQLLESGGGLVQPGGSLRLSCAASGFTFSSYAMSWVRQAPGKGLEWVSTISSGGSYTSYPDSVKGRFTISRDNSKNTLYLQMNSLRAEDTAVYYCAKQDYAMNYWGQGTLVTVSS
chain 2: DIQMTQSPSSLSASVGDRVTITCKASQDVSTAVAWYQQKPGKAPKLLIYSASYRYTGVPSRFSGSGSGTDFTLTISSLQPEDFATYYCQQHYSTPWTFGGGTKVEIK
B9: unnamed (protein)
chain 1: EVQLVESGGGLVQPGGSLRLSCAVSGFSSTNYHVHWVRQAPGKGLEWMGVIWGDGDTSYNSVLKSRFTISRDTSKNTVYLQMNSLRAEDTAVYYCARQLTHYYVLAAWGQGTLVTVSS
chain 2: DIQMTQSPSSLSASVGDRVTITCRASEDLYYNLAWYQRKPGKAPKLLIYDTYRLADGVPSRFSGSGSGTDYTLTISSLQPEDFASYYCQQYYKFPFTFGQGTKVEIK
B10: unnamed (protein)
chain 1: EVQLLQSGPELEKPGASVMISCKASGSSFTGYNMNWVRQNIGKSLEWIGAIDPYYGGTSYNQKFKGRATLTVDKSSSTAYMHLKSLTSEDSAVYYCVSGMEYWGQGTSVTVSS
chain 2: EIVMTQSPATLSVSPGERATLSCRSSQSLVHRNGNTYLHWYLQKPGQSPKLLIHKVSNRFSGVPDRFSGSGSGTDFTLKISRVEAEDLGVYFCSQSTHVPPLTFGAGTKLELK

A short description of the data set: patients with anti-drug antibodies; higher = more immunogenic.
Regarding B1, the “patients with anti-drug antibodies” value amounted to 0%. The value for B2 was 0%; that for B3 was 58.6%; that for B4 was 33.3%. B5: the “patients with anti-drug antibodies” value was 5%. The value for B6 was 4%.

B7: the “patients with anti-drug antibodies” value came to 1%. On to B8, for which the “patients with anti-drug antibodies” value amounted to 9.4%.

With B9, the “patients with anti-drug antibodies” value is 8.9%. As to B10, the “patients with anti-drug antibodies” value came to 17%.
